Measurements taken from article PMC6872904.

Target: Bmp8
Test: SEC

Substance Bmp8 (enzyme) has a stoichiometry N of 2.
